Results: PMC5043372, “A pre-metazoan origin of the CRK gene family and co-opted signaling network” (Scientific Reports, 2016)
Non-standard residues stand in square brackets, D forms with d. No end group written: not given here. pY = N[C@@H](Cc1ccc(OP(=O)(O)O)cc1)C(=O)O

T1: SH2 domain of Monosiga brevicollis crka1 (Monosiga brevicollis, UniProt A0A1C9VNP8 1-97)
T1 construct: seven additional amino acids left at the N-terminus after His-tag removal; For the NMR structure the same domain was made with the E. coli cell-free protein synthesis system; also called Mb-crka1 SH2; crka1 SH2 domain
T1 sequence: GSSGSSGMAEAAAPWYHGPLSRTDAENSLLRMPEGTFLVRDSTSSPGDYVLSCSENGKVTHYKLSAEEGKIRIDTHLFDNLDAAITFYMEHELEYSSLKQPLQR


Target: T1, SH2 domain of Monosiga brevicollis crka1
Assay: ITC; peptide (400 uM) injected into the cell holding the SH2 domain (40 uM); 25 °C; 25 mM HEPES, pH7, 100 mM NaCl; MicroCal Auto-iTC200
Conditions: both partners purified

| binding result | Binder |
| --- | --- |
| binds | DM[pY]DVPRN (together with EM-pYDVP-RS it overlaps 5 of the 10 YxxP motifs; source: synthetic peptide, bought: Toray Research Center) [phosphopeptide DM-pYDVP-RN of S. rosetta PTSG_05573] |
| binds | EM[pY]DVPRS (together with DM-pYDVP-RN it overlaps 5 of the 10 YxxP motifs; source: synthetic peptide, bought: Toray Research Center) [phosphopeptide EM-pYDVP-RS of S. rosetta PTSG_05573] |
